# Data published in patent US20240092867A1 (UNIVERSITY OF CHICAGO, published 2024).
# T1: recombinant laminin α3 2928-3150 protein (linker domain and LG4 domain) (human, UniProt Q16787 2928-3150)
# T1 construct: range 2928-3150; Made in HEK-293F cells; also called laminin alpha 3 LG domain recombinant protein
# T1 sequence: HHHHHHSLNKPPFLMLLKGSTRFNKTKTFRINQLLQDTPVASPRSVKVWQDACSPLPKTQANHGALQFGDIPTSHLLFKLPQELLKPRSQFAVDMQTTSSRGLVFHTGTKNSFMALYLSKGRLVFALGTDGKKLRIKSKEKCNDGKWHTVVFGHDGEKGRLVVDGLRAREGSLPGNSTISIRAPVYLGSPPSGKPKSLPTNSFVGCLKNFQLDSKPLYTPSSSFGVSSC
# B1: platelet-derived growth factor (PDGF)-BB (ligand, human, UniProt P01127 82-190, looked up)
# chain: SLGSLTIAEPAMIAECKTRTEVFEISRRLIDRTNANFLVWPPCVEVQRCSGCCNNRNVQCRPTQVQLRPVQVRKIEIVRKKPIFKKATVTLEDHLACKCETVAAARPVT
# notes: mature; Purchased in mature form
# B2: placental growth factor (PlGF)-2 (ligand, human, UniProt P49763-3 19-170, looked up)
# chain: LPAVPPQQWALSAGNGSSEVEVVPFQEVWGRSYCRALERLVDVVSEYPSEVEHMFSPSCVSLLRCTGCCGDENLHCVPVETANVTMQLLKIRSGDRPSYVELTFSQHVRCECRPLREKMKPERRRPKGRGKRRREKQRPTDCHLCGDAVPRR
# notes: as for B1
# How the values were obtained:
# [1] = target: T1, recombinant laminin α3 2928-3150 …; experiment: SPR; α3 2928-3150 recombinant protein immobilised (~1000 RU), PDGF-BB flowed at 0.325-41.6 nM; Langmuir fit [panel D]
# From the text: (§1) Statistical analyses were done using the Mann-Whitney U test by comparing the signals obtained from the laminin domain- and the BSA-coated wells. *p<0.05, **p<0.01. […] A SPR chip was functionalized with the laminin α3₂₉₂₈₋₃₁₅₀ recombinant protein (˜1000 RU), and each GF was flowed over the chip at indicated concentrations. Curves represent the specific responses (in RU) to laminin. Experimental curves were fitted with Langmuir binding kinetics.
# (§2) Because the GFs that bound to laminins have also been previously reported to bind to other ECM glycoproteins through HBDs, it was hypothesized that HBDs of laminins might be responsible for the interactions between GFs and laminin. To address this hypothesis, ELISA assays were repeated for VEGF-A165, PlGF-2 or FGF-2 in the presence of heparin added in excess (10 μM). […] To further confirm this, the inventors tested direct GF binding to the LG domains from human laminin α3, α4 and α5, within which HBDs of laminin were localized.
# (§3) SPR analysis was performed as described previously². In brief, measurements were made with a Biacore 3000 SPR system (GE Healthcare). […] VEGF-A165, PDGF-BB, or PlGF-2 was flowed at increasing concentrations in the running buffer at 20 μL/min. The sensor chip was regenerated with 50 mM NaOH for every cycle.
# [2] = target: T2, laminin-521 (human, UniProt O15230 36-3695; P55268 33-1798; P11047 34-1609); experiment: SPR; laminin-521 immobilised on the chip (~2000 RU), PDGF-BB flowed at 25-200 nM; Langmuir fit
# T2 construct: Full-length recombinant human laminin isoform (BioLamina); chains read from the isoform name
# Protocol: (§4) A450 nm represents absorbance at 450 nm. BSA-coated wells served as negative controls (n=4, mean±SEM). Signals greater than 0.1 (grey box) are considered to be significant. […] Experimental curves were fitted with Langmuir binding kinetics.
# (§5) The obtained binding curves were fitted with Langmuir binding kinetics to calculate specific dissociation constants (KD) (FIG. 1B).
# as §3, with “cycle. Specific bindings of GFs to laminin were calculated by comparison to a non-functionalized channel used as a reference. Experimental results were fitted with Langmuir binding kinetics using BIAevaluation software (GE Healthcare).” for “cycle.”
# [3] = target: T2, laminin-521; experiment: SPR, laminin-521 immobilised, GF flowed, Langmuir fit
# Protocol: as §4, §5
# as §3, with “cycle. Specific bindings of GFs to laminin were calculated by comparison to a non-functionalized channel used as a reference. Experimental results were fitted with Langmuir binding kinetics using BIAevaluation software (GE Healthcare).” for “cycle.”
# [4] = target: T1, recombinant laminin α3 2928-3150 …; experiment: SPR, α3 2928-3150 immobilised, GF flowed, Langmuir fit
# Protocol: as §1, with “Affinity of GFs against recombinant laminin LG domains. ELISA plates were coated with 1 μg/mL (A) α3₂₉₂₈₋₃₁₅₀, (B) α4₈₂₆₋₁₈₁₆, or (C) α5₃₀₂₆₋₃₄₈₂ and further incubated with 1 μg/mL of VEGF-A165, VEGF-A121, PlGF-2, PlGF-1, PDGF-BB, or FGF-2 solution. Bound GFs were detected using a specific antibody for each GF (n=4, mean±SEM). Statistical” for “Statistical”
# as §2
# SPR analysis was performed as described previously². […]
# [5] = target: T3, laminin-211 (human, UniProt P24043 23-3122; P07942 22-1786; P11047 34-1609); experiment: ELISA, GF coated, laminin 10 nM
# T3 construct: Full-length recombinant human laminin isoform (BioLamina); chains read from the isoform name
# [6] = target: T4, laminin-111 (human, UniProt P25391 18-3075; P07942 22-1786; P11047 34-1609); experiment: ELISA, GF coated, laminin 10 nM
# T4 construct: Full-length recombinant human laminin isoform (BioLamina); Chain composition is read from the isoform name
# [7] = target: T5, laminin-411 (human, UniProt Q16363 25-1823; P07942 22-1786; P11047 34-1609); experiment: ELISA, GF coated, laminin 10 nM
# T5 construct: Full-length recombinant human laminin isoform (BioLamina); chains read from the isoform name
# [8] = target: T6, laminin-421 (human, UniProt Q16363 25-1823; P55268 33-1798; P11047 34-1609); experiment: ELISA, GF coated, laminin 10 nM
# T6 construct: Full-length recombinant human laminin isoform (BioLamina); chains read from the isoform name
# [9] = target: T7, human plasma-derived vWF (human, UniProt P04275 764-2813); experiment: SPR; plasma-derived vWF immobilised (~2000 RU), PDGF-BB flowed at 25-200 nM; heterogeneous ligand-parallel reactions fit, site 1 [panel D]
# T7 construct: mature; also called plasma-derived purified vWF; von Willebrand factor
# Protocol: (§6) A450 nm represents absorbance at 450 nm. Signals from VEGF-A121 served as a baseline, and bovine serum albumin (BSA) served as a negative control (n=4, mean±SD). […] Experimental curves were fitted with (C) 1:1 Langmuir fit model and (D) heterogeneous ligand-parallel reactions binding.
# (§7) SPR assays were performed as described previously2. In brief, measurements were made with a Biacore X100 SPR system or Biacore 3000 SPR system (GE Healthcare). […] Recombinant human VEGF-A165, VEGF-A121, or PDGF-BB was flowed at increasing concentrations in the running buffer at 30 μL/min. The sensor chip was regenerated with glycine at pH 2 for every cycle.
# [10] = target: T7, human plasma-derived vWF; experiment: SPR; plasma-derived vWF immobilised (~2000 RU), PDGF-BB flowed at 25-200 nM; heterogeneous ligand-parallel reactions fit, site 2 [panel D]
# Protocol: as §6, §7
# [11] = target: T7, human plasma-derived vWF; experiment: SPR, vWF immobilised, GF flowed, heterogeneous ligand-parallel reactions fit
# Protocol: as §6, §7
# [12] = target: T1, recombinant laminin α3 2928-3150 …; experiment: ELISA, LG domain protein coated, GF 1 µg/mL
# Protocol: as §1, with “Affinity of GFs against recombinant laminin LG domains. ELISA plates were coated with 1 μg/mL (A) α3₂₉₂₈₋₃₁₅₀, (B) α4₈₂₆₋₁₈₁₆, or (C) α5₃₀₂₆₋₃₄₈₂ and further incubated with 1 μg/mL of VEGF-A165, VEGF-A121, PlGF-2, PlGF-1, PDGF-BB, or FGF-2 solution. Bound GFs were detected using a specific antibody for each GF (n=4, mean±SEM). Statistical” for “Statistical”
# ELISA tests were performed as described above. […] 1 μg/mL of BSA served as non-binding protein control. After blocking with 2% BSA PBS-0.05% Tween 20 (PBS-T) solution, 1 μg/mL of the recombinant human proteins (VEGF-A121, VEGF-A165, PlGF-1, PlGF-2, PDGF-BB or FGF-2) or 10 μg/mL of biotinylated heparin (Sigma-Aldrich) were added. Bound GF was detected with biotinylated antibodies for human VEGF, PlGF, PDGF-BB, or FGF-2 (R&D Systems). The antibodies were detected by streptavidin-HRP (R&D Systems).
# [13] = target: T8, recombinant human vWF A1 domain (human, UniProt P04275 1261-1468, limits assumed); experiment: ELISA, A1 domain coated, GF 1 µg/mL
# T8 construct: domain: A1; also called vWF A1 recombinant protein; recombinant A1 domain
# Protocol: ELISA tests were performed as described above. […] After blocking with 2% BSA solution containing PBS-T, 1 μg/mL of the recombinant human proteins VEGF-A121, VEGF-A165, PlGF-1, PlGF-2, PDGF-BB, FGF-2, CXCL-12α and CXCL-12γ were added. 1 μg/mL of BSA served as non-binding protein control. Bound GF or chemokine was detected with biotinylated antibodies for human VEGF-A, PlGF, PDGF-BB, FGF-2, or CXCL-12 (R & D Systems). The antibodies were detected by streptavidin-HRP (R & D Systems). Color development and the absorbance measurement were done as described above.
# [14] = target: T3, laminin-211; experiment: ELISA; plate coated with 10 µg/mL laminin, 1 µg/mL PlGF-2 in solution without or with 10 µM heparin, bound GF detected with antibody [panel B]
# Protocol: (§8) FIGS. 2A-C. […] ELISA plates were coated with 10 μg/mL laminin and further incubated with a 1 μg/mL (A) VEGF-A165, (B) PlGF-2, or (C) FGF-2 solution in the absence or presence of excess (10 μM) heparin. Bound GFs were detected using a specific antibody for each GF (n=4, mean±SEM). Statistical analyses were done using the Mann-Whitney U test by comparing the signals with and without heparin. *p<0.05, **p<0.01.
# as §2
# [15] = target: T4, laminin-111; experiment: as above
# Protocol: as §8, §2
# [16] = target: T5, laminin-411; experiment: as above
# Protocol: as §8, §2
# [17] = target: T6, laminin-421; experiment: as above
# Protocol: as §8, §2
# [18] = target: T2, laminin-521; experiment: SPR; laminin-521 immobilised on the chip (~2000 RU), PlGF-2 flowed at 20-75 nM; Langmuir fit
# Protocol: as §4, §5
# as §3, with “cycle. Specific bindings of GFs to laminin were calculated by comparison to a non-functionalized channel used as a reference. Experimental results were fitted with Langmuir binding kinetics using BIAevaluation software (GE Healthcare).” for “cycle.”
# [19] = target: T7, human plasma-derived vWF; experiment: ELISA, GF coated 50 nM, vWF 1 µg/mL
# T5 sequence (Q16363 25-1823 limits assumed, chain 1 of 3): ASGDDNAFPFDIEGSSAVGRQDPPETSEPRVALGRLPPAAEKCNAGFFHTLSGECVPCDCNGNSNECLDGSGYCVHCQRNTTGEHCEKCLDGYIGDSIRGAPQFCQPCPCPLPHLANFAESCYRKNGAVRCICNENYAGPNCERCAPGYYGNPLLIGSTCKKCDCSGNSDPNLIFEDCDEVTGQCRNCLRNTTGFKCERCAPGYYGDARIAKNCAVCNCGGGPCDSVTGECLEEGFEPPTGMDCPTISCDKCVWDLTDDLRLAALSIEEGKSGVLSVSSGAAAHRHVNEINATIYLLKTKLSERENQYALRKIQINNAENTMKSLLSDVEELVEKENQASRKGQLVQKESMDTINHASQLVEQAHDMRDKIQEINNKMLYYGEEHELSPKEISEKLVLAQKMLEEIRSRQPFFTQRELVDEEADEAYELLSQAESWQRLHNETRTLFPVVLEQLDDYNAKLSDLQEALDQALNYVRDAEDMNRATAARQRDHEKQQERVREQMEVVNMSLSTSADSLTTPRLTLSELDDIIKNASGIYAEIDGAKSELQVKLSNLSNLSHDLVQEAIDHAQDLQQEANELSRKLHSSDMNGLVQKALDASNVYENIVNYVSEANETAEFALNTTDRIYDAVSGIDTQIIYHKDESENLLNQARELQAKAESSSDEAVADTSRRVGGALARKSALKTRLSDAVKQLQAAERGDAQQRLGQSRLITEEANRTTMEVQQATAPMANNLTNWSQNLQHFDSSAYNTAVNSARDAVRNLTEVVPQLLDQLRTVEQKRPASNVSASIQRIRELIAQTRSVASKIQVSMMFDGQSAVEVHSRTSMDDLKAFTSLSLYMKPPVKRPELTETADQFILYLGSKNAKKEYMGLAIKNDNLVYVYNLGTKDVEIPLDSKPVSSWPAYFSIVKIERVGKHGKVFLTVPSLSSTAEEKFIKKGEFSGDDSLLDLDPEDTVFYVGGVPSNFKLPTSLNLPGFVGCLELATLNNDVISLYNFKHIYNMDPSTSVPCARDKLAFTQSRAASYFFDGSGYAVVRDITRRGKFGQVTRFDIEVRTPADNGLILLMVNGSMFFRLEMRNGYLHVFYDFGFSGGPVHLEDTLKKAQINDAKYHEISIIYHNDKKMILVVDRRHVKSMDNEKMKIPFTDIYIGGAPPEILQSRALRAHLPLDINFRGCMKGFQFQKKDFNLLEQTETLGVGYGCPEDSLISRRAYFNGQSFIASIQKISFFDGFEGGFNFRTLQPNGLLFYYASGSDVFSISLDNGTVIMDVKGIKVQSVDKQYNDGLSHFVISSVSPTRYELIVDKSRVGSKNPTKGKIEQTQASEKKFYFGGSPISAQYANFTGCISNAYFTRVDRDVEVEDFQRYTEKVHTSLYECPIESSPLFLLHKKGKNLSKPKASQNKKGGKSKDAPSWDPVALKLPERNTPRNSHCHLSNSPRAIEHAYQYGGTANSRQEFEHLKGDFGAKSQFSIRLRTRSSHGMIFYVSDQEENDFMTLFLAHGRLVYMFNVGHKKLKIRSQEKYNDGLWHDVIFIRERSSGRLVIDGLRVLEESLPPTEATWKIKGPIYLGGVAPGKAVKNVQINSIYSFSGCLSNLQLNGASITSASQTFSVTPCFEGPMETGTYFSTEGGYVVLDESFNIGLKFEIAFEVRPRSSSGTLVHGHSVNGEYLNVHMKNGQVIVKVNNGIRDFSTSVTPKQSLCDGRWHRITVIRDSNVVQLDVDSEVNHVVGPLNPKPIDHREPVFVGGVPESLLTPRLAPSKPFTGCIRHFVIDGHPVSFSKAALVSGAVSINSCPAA
# T5 sequence (P07942 22-1786 limits assumed, chain 2 of 3): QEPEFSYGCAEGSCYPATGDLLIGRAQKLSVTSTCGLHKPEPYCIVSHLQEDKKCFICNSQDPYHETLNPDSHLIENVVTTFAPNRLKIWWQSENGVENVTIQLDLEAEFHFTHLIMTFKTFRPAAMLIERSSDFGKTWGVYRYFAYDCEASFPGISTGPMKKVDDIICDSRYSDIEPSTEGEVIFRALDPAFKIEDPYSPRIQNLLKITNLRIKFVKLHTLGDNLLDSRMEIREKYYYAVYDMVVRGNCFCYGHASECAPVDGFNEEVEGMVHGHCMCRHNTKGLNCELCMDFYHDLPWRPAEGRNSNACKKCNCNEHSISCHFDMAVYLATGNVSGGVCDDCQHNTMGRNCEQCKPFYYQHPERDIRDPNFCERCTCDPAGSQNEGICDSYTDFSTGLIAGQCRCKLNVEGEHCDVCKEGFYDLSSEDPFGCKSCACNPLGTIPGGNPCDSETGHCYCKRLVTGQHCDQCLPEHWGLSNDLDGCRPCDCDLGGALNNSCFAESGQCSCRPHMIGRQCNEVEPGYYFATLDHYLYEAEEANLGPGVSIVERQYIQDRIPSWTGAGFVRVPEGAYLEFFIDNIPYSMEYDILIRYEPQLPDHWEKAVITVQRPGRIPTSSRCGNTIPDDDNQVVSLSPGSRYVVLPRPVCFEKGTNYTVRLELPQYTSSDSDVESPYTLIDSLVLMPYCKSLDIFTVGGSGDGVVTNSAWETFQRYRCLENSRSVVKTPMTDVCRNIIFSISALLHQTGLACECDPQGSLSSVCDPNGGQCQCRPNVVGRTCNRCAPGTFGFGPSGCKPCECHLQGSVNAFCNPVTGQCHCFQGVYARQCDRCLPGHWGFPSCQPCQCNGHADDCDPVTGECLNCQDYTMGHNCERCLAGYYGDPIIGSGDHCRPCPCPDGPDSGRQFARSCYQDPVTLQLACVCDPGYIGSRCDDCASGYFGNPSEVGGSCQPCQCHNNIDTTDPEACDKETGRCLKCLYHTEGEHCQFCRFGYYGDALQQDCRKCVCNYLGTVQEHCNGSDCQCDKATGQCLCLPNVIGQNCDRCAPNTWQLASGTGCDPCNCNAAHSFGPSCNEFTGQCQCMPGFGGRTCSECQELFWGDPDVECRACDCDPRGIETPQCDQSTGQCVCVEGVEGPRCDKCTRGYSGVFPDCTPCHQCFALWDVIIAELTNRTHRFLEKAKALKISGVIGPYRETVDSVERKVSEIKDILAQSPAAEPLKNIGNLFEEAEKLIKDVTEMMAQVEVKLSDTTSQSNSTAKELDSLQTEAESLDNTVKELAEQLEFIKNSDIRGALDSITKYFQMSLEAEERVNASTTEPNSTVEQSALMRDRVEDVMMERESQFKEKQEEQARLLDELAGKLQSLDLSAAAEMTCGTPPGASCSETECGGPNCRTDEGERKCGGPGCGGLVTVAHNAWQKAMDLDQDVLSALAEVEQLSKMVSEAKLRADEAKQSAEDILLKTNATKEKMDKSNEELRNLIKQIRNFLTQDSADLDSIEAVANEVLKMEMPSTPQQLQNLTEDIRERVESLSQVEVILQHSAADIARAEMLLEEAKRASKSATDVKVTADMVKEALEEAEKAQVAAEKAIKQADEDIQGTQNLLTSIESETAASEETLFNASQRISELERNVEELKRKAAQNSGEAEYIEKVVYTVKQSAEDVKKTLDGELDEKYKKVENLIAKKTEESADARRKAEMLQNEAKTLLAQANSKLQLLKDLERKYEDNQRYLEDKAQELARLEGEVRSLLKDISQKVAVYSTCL
# T5 sequence (P11047 34-1609 limits assumed, chain 3 of 3): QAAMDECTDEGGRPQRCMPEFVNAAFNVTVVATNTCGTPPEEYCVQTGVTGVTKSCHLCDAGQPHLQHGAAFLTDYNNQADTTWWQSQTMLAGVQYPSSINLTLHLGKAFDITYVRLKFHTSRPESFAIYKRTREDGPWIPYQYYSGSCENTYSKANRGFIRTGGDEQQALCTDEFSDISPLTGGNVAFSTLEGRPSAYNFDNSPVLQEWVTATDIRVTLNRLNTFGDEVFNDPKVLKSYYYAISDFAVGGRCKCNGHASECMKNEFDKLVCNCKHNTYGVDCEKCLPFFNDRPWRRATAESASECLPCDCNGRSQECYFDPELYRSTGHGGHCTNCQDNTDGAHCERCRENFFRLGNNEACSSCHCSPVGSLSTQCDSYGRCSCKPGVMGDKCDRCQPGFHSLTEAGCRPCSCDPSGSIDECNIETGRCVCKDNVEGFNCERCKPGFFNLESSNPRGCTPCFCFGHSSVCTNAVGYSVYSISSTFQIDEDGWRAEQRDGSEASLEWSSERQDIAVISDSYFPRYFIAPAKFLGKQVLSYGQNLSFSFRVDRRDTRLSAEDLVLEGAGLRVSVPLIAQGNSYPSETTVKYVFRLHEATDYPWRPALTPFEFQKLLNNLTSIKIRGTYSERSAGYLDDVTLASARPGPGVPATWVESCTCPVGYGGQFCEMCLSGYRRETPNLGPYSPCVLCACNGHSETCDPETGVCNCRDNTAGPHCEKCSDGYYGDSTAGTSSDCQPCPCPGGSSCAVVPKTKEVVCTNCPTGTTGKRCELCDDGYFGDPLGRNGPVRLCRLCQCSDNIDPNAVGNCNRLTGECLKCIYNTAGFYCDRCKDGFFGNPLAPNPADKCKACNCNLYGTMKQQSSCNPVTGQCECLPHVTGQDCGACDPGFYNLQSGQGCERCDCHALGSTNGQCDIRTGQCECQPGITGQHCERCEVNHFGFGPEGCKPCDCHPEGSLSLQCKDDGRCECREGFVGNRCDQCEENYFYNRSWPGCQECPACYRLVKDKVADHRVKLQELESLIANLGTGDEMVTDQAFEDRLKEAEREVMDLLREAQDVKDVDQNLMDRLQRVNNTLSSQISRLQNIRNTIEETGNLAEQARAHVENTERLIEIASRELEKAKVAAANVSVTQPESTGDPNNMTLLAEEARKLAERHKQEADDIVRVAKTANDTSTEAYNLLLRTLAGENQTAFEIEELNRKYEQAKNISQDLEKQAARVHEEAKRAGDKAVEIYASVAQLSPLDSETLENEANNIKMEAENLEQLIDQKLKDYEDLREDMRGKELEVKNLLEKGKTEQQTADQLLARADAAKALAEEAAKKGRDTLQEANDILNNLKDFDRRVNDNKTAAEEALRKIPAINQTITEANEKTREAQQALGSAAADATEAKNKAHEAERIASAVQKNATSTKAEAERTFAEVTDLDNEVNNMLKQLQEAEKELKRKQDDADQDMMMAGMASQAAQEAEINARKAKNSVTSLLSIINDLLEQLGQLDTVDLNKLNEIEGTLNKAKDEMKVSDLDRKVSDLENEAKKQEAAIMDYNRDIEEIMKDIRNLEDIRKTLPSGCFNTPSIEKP
binder,measurement,setting,value
B1,Kd,[1],12.1 nM
same,koff,[1],0.0136 s⁻¹
same,kon,[1],1.12e+06 M⁻¹ s⁻¹
same,koff,[2],0.00497 s⁻¹
same,kon,[2],206000 M⁻¹ s⁻¹
same,Kd,[3],24.2 nM
same,Kd,[4],10.2 nM
same,binding result,[5],binds
same,binding result,[6],binds
same,binding result,[7],binds
same,binding result,[8],binds
same,Kd,[9],154 nM
same,koff,[9],0.0664 s⁻¹
same,kon,[9],430000 M⁻¹ s⁻¹
same,Kd,[10],23.8 nM
same,koff,[10],0.00508 s⁻¹
same,kon,[10],213000 M⁻¹ s⁻¹
same,Kd,[11],24 nM
B2,Kd,[3],12.9 nM
same,binding result,[12],binds
same,binding result,[13],binds
same,binding result,[14],binds
same,binding result,[15],binds
same,binding result,[16],binds
same,binding result,[17],binds
same,koff,[18],0.0246 s⁻¹
same,kon,[18],1.91e+06 M⁻¹ s⁻¹
same,binding result,[19],binds
